Reference: paper PMC3679522 (eLife, 2013)

B1: GST-Nup100(1–610) (domain or fragment, S. cerevisiae, UniProt Q02629 1-610, looked up)
chain: MFGNNRPMFGGSNLSFGSNTSSFGGQQSQQPNSLFGNSNNNNNSTSNNAQSGFGGFTSAAGSNSNSLFGNNNTQNNGAFGQSMGATQNSPFGSLNSSNASNGNTFGGSSSMGSFGGNTNNAFNNNSNSTNSPFGFNKPNTGGTLFGSQNNNSAGTSSLFGGQSTSTTGTFGNTGSSFGTGLNGNGSNIFGAGNNSQSNTTGSLFGNQQSSAFGTNNQQGSLFGQQSQNTNNAFGNQNQLGGSSFGSKPVGSGSLFGQSNNTLGNTTNNRNGLFGQMNSSNQGSSNSGLFGQNSMNSSTQGVFGQNNNQMQINGNNNNSLFGKANTFSNSASGGLFGQNNQQQGSGLFGQNSQTSGSSGLFGQNNQKQPNTFTQSNTGIGLFGQNNNQQQQSTGLFGAKPAGTTGSLFGGNSSTQPNSLFGTTNVPTSNTQSQQGNSLFGATKLTNMPFGGNPTANQSGSGNSLFGTKPASTTGSLFGNNTASTTVPSTNGLFGNNANNSTSTTNTGLFGAKPDSQSKPALGGGLFGNSNSNSSTIGQNKPVFGGTTQNTGLFGATGTNSSAVGSTGKLFGQNNNTLNVGTQNVPPVNNTTQNALLGTTAVPSLQQAPVTN
notes: Nup100 of budding yeast, GLFG-type FG-repeat region, residues 1-610; source: E. coli BL21(DE3), purified (GSH beads, eluted with glutathione, dialysed); not shown: GST, N-terminal, kept
B2: importin β from S. cerevisiae (ScKap95) (natural protein)
chain: MSTAEFAQLLENSILSPDQNIRLTSETQLKKLSNDNFLQFAGLSSQVLIDENTKLEGRILAALTLKNELVSKDSVKTQQFAQRWITQVSPEAKNQIKTNALTALVSIEPRIANAAAQLIAAIADIELPHGAWPELMKIMVDNTGAEQPENVKRASLLALGYMCESADPQSQALVSSSNNILIAIVQGAQSTETSKAVRLAALNALADSLIFIKNNMEREGERNYLMQVVCEATQAEDIEVQAAAFGCLCKIMSLYYTFMKPYMEQALYALTIATMKSPNDKVASMTVEFWSTICEEEIDIAYELAQFPQSPLQSYNFALSSIKDVVPNLLNLLTRQNEDPEDDDWNVSMSAGACLQLFAQNCGNHILEPVLEFVEQNITADNWRNREAAVMAFGSIMDGPDKVQRTYYVHQALPSILNLMNDQSLQVKETTAWCIGRIADSVAESIDPQQHLPGVVQACLIGLQDHPKVATNCSWTIINLVEQLAEATPSPIYNFYPALVDGLIGAANRIDNEFNARASAFSALTTMVEYATDTVAETSASISTFVMDKLGQTMSVDENQLTLEDAQSLQELQSNILTVLAAVIRKSPSSVEPVADMLMGLFFRLLEKKDSAFIEDDVFYAISALAASLGKGFEKYLETFSPYLLKALNQVDSPVSITAVGFIADISNSLEEDFRRYSDAMMNVLAQMISNPNARRELKPAVLSVFGDIASNIGADFIPYLNDIMALCVAAQNTKPENGTLEALDYQIKVLEAVLDAYVGIVAGLHDKPEALFPYVGTIFQFIAQVAEDPQLYSEDATSRAAVGLIGDIAAMFPDGSIKQFYGQDWVIDYIKRTRSGQLFSQATKDTARWAREQQKRQLSL
notes: Kap95 (importin β) of S. cerevisiae, PCR-amplified ORF

What was measured:
[1] = molecular target: B2; test: pull-down; GST-FG fusions pre-bound to GSH beads; soluble protein (100-500 pmol) pre-mixed with 200 μg bacterial extract proteins in 0.5 ml pulldown buffer (10 mM HEPES pH 7.5, 160 mM KOAc, 1 mM MgOAc2, 1 mM DTT, 0.01% Triton X-100); 20 min, room temperature; eluted with 1 M NaCl, then SDS-sample buffer; SDS-PAGE, SYPRO Ruby; conditions: both partners purified
[2] = molecular target: ZZ-HsRanQ69L (human, UniProt P62826 1-216, Q69L); test: SEC; 2 μM of each protein, 20 min on ice, Superdex 200 10/300 in Ran binding buffer (10 mM HEPES pH 7.4, 150 mM NaCl, 2 mM MgOAc2, 1 mM DTT); fractions by SDS-PAGE (SYPRO Ruby) and Western blot against the ZZ-tag; conditions: both partners purified

| binding result [1] | binding result [2] | Binder |
| --- | --- | --- |
| binds |  | B1 |
|  | binds | B2 |
